Laboratory results: article PMC11747444

Target: recombinant strep-tagged apo-APC/C, dephosphorylated (UniProt Q9H1A4)
Chain of UniProt Q9H1A4 (Q9H1A4 whole entry, looked up): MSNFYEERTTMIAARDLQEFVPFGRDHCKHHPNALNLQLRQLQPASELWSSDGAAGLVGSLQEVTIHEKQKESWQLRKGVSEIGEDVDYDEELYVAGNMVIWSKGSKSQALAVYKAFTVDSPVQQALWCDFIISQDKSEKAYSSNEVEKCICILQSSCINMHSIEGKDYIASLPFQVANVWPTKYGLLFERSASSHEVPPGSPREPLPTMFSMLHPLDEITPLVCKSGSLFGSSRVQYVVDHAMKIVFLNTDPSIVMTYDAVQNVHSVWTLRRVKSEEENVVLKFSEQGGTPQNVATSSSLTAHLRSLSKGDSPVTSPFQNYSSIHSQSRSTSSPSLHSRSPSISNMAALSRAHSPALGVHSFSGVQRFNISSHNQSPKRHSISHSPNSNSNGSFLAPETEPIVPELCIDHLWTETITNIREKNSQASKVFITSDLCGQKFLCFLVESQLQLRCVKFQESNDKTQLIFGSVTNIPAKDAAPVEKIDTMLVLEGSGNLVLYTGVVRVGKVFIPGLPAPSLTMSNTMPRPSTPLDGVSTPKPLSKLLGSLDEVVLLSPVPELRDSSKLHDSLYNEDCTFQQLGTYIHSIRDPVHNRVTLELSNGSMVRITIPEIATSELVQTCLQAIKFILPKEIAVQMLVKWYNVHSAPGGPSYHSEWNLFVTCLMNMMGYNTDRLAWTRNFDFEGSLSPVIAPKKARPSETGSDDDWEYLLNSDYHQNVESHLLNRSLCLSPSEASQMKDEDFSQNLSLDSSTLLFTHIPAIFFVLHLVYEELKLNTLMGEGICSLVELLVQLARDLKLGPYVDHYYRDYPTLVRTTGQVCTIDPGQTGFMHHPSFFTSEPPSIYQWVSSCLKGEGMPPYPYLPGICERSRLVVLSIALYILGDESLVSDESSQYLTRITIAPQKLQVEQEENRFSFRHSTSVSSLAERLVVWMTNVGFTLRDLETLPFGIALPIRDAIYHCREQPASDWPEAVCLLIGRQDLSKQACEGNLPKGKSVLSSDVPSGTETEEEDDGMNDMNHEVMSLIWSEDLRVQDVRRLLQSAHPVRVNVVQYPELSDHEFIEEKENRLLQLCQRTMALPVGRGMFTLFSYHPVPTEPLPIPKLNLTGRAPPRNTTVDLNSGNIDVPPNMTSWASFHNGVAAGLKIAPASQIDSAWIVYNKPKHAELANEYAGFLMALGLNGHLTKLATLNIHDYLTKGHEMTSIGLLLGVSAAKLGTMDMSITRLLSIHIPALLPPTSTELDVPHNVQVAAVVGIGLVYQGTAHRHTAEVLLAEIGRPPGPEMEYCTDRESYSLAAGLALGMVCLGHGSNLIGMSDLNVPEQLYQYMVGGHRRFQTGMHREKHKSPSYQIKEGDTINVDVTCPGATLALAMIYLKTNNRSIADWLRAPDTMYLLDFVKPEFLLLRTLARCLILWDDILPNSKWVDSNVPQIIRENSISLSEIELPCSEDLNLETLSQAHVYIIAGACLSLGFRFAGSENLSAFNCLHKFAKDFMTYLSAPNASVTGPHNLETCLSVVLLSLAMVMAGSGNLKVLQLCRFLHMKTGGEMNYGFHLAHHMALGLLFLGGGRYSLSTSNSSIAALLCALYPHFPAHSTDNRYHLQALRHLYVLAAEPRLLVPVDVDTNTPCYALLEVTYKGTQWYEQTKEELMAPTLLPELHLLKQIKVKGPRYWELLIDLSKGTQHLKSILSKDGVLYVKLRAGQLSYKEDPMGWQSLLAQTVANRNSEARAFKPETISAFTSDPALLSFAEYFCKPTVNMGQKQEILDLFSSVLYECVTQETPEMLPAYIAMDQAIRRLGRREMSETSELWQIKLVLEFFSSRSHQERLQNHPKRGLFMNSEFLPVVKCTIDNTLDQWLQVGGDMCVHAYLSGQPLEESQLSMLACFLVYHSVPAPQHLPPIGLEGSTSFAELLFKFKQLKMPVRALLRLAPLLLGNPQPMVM

CDK1/CKS1/cyclin B1^wt complex (CCC^wt) (from UniProt P06493 1-297; P61024 1-79; P14635 1-433)
phosphosites on dephosphorylated recombinant APC/C after in vitro phosphorylation, by mass spectrometry: 28 phosphosites
